The assay addresses T1, FEZ1 (amino acids 1-308), EmGFP-tagged (UniProt Q99689 1-308).
T1 construct: FEZ1, amino acids 1-308; plasmid as described in Chua et al., 2012; also called truncated FEZ1 lacking its C terminus; source: HEK293, transfected, in lysate
T1 sequence (looked up): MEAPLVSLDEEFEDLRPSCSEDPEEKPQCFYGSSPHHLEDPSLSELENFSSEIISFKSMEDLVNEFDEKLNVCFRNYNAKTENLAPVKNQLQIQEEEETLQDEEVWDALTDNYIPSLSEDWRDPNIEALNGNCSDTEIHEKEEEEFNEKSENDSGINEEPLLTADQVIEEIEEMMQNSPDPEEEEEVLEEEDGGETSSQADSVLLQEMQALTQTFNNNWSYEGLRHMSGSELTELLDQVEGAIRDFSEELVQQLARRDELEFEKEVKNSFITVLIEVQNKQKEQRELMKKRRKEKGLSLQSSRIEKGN
As to the kind of experiment: co-IP; HEK293 cells co-expressing the two tagged proteins, 24 h after transfection; lysis and washes in 50 mM HEPES, 150 mM NaCl, 1 mM EDTA, 1% Triton X-100, pH 7.2; GFP-Trap agarose beads 1-3 h at 4°C; immunoblot. Conditions: partners not purified. In general terms: In western blotting, separated proteins are transferred to a membrane and probed.

B1: collapsin response mediator protein 1 (CRMP1), full-length, FLAG-tagged (natural protein)
chain: not shown
notes: CRMP1, human cDNA, full-length, in pFLAG-CMV2; also called FLAG-CRMP1; source: HEK293, transfected, in lysate
In the case of B1, the “fold change of co-precipitated CRMP1 against full-length FEZ1” value was about 3 fold.

The record behind these values is paper PMC8174033, “FEZ1 Forms Complexes with CRMP1 and DCC to Regulate Axon and Dendrite Development” (eNeuro, 2021).
